Data on one molecule can be found in PMC3138754, “α-SNAP Prevents Docking of the Acrosome during Sperm Exocytosis because It Sequesters Monomeric Syntaxin” (PLoS ONE, 2011).

In this assay the target is T1, syntaxin1 (1–262), cytosolic domain (UniProt P32851 1-262).
T1 construct: syntaxin1 residues 1-262 (cytosolic domain); pET28a plasmid from D. Fasshauer; rat syntaxin 1A is surmised from the source of the plasmid; also called syntaxin 1–262; cytosolic domain of syntaxin1; source: E. coli BLR(DE3), pET28a plasmid, extracted in 6 M urea, purified on Ni-NTA with renaturing during the washing step
The assay can be described thus: co-IP; 0.9 µM syntaxin 1-262 with 1, 2.5 or 5 µM α-SNAP wild type or M105I, NSF and ATP omitted; anti-syntaxin immunoprecipitation, anti-α/β-SNAP blot, densitometry normalised to syntaxin. The note with it: both partners purified.

T1 sequence (P32851 1-262): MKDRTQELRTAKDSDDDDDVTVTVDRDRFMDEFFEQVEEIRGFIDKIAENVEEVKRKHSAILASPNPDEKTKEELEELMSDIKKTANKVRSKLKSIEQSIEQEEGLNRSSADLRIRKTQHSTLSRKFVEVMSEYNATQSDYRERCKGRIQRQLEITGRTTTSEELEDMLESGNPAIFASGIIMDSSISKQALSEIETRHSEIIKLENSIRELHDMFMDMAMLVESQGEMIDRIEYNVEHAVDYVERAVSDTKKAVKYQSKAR

B1: α-SNAP-M105I (natural protein, UniProt P81125 1-295, looked up)
chain: MDNSGKEAEAMALLAEAERKVKNSQSFFSGLFGGSSKIEEACEIYARAANMFKMAKNWSAAGSAFCQAAHVHLQLQSKHDAATCFVDAGNAFKKADPQEAINCLIRAIEIYTDMGRFTIAAKHHISIAEIYETELVDIEKAIAHYEQSADYYKGEESNSSANKCLLKVAGYAAQLEQYQKAIDIYEQVGTNAMDSPLLKYSAKDYFFKAALCHFCIDMLNAKLAVQKYEELFPAFSDSRECKRIKKLLEAHEEQNVDSYTEAVKEYDSISRLDQWLTTMLLRIKKTIQGDEEDLR
notes: α-SNAP with the point mutation M105I that occurs in hyh mice; pET28 plasmid from P. Hanson; called one of the three full length proteins; also called M105I mutant; the mutant of the hyh mouse; source: E. coli BLR(DE3), pET28 plasmid, purified (Ni-NTA, native conditions)
As to B1, the “fold amount recovered with syntaxin against the wild type” value was 2 fold.
